Laboratory results published in US20210393713A1 (University of Pennsylvania, published 2021).
Residue numbers refer to the chain shown, from its start. Names and notes keep the numbering of the source.

Molecular target: T1, Twin-Strep-tagged LY6A, BALB/cJ variant (GPI-anchor truncated, soluble) (mouse (BALB/cJ), UniProt P05533 27-111)
T1 construct: range 1-111; also called BALB/cJ LY6A; BABL/cJ LY6A; not shown: Twin-Strep-tag from vector pESG-IBA103
T1 sequence: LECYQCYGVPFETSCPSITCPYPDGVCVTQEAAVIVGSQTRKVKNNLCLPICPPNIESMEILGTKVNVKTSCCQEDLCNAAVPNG
Experiment: ELISA, AAV particles on plate-bound Twin-Strep-tagged LY6A

B1: AAV-PHP.B V592G mutant capsid (other)
chain: MAADGYLPDWLEDNLSEGIREWWALKPGAPQPKANQQHQDNARGLVLPGYKYLGPGNGLDKGEPVNAADAAALEHDKAYDQQLKAGDNPYLKYNHADAEFQERLKEDTSFGGNLGRAVFQAKKRLLEPLGLVEEAAKTAPGKKRPVEQSPQEPDSSAGIGKSGAQPAKKRLNFGQTGDTESVPDPQPIGEPPAAPSGVGSLTMASGGGAPVADNNEGADGVGSSSGNWHCDSQWLGDRVITTSTRTWALPTYNNHLYKQISNSTSGGSSNDNAYFGYSTPWGYFDFNRFHCHFSPRDWQRLINNNWGFRPKRLNFKLFNIQVKEVTDNNGVKTIANNLTSTVQVFTDSDYQLPYVLGSAHEGCLPPFPADVFMIPQYGYLTLNDGSQAVGRSSFYCLEYFPSQMLRTGNNFQFSYEFENVPFHSSYAHSQSLDRLMNPLIDQYLYYLSRTINGSGQNQQTLKFSVAGPSNMAVQGRNYIPGPSYRQQRVSTTVTQNNNSEFAWPGASSWALNGRNSLMNPGPAMASHKEGEDRFFPLSGSLIFGKQGTGRDNVDADKVMITNEEEIKTTNPVATESYGQVATNHQSAQTLAGPFKAQAQTGWVQNQGILPGMVWQDRDVYLQGPIWAKIPHTDGNFHPSPLMGGFGMKHPPPQILIKNTPVPADPPTAFNKDKLNSFITQYSTGQVSVEIEWELQKENSKRWNPEIQYTSNYYKSNNVEFAVNTEGVYSEPRPIGTRYLTRNL
binding result: no binding

B2: AAV-PHP.eB capsid (other)
chain: B1 chain with A587D, Q588G, G592V
binding result: binds
